The test system of test [1] is B. dermatitidis strain 26199. It counts as in vivo, Blastomyces dermatitidis.
Test [2] has as its system calnexin peptide #1-specific CD4+ T cells. It counts as in vivo, mouse.
Test [3] relates to 1807 cells. Format: cell-based, mouse. The conditions noted are these: calnexin peptide #1 13 amino acid sequence of the named species.
The target of test [4] is recombinant Calnexin (Paracoccidioides brasiliensis Calnexin with C-terminal 6xHis tag, from E. coli) (Paracoccidioides brasiliensis).
The subject of test [5] is 1807 cells. The test can be described thus: In vivo activation and proliferation of adoptively transferred 1807 cells. The conditions noted are these: emulsified in complete Freund's adjuvant; CD44, CFSE.
For test [6], the system named is human CD4+ T cells. The test can be described thus: In vitro stimulation and identification of activated human T cells (PBMC, CD154 enrichment, CD137). Format: cell-based.
[7] abbreviates: 10 μg/ml, CD137 on CD154 enriched CD4+ cells, positive >3-fold over medium alone.

“Also recorded” adds a separate entry of the source. Read-outs that look alike come from different tables or passages of the source. Some results are limits rather than exact numbers.

“LVVKNPAAHHAIS (Blastomyces dermatitidis of strains 26199, 18808, Er-3, 14081; Histoplasma capsulatum of strains G186AR, Nam1, H88, H143; Aspergillus sp.1 of strain group.1; Arthroderma; listed as Ajellomyces capsulatus, listed as Ajellomyces dermatitidis, listed as Arthroderma benhamiae) [Peptide #1, synthetic 13 aa peptide, residues 103-115 of B. dermatitidis calnexin]”: the “protection against infection compared to preceding approaches” value in test [1] (i.v. delivery of calnexin peptide) is reported as “vaccine efficacy was unchanged”. Also, in test [2] (delivery via the i.v. route), the “calnexin-specific T cells vs. number of cells in control mice” value was “more than 20 fold”; the “pool of calnexin-specific T cells in the draining lymph nodes and spleen” value is > 1000 cells. In addition, the “tetramer positive CD4+ T cells per animal” value in test [2] (naïve C57BL/6 mice) is on record as 30.

“LVMKSRASHYAIS (Candida albicans) [Candida albicans_5314]”: the 1807 reactive result in test [3] (listed as SEQ ID NO: 9) is listed as “not reactive”.

For the molecule “LVLKSRAKHHAIS (listed as Homo sapiens) [SEQ ID NO: 10, reference compound]”, the 1807 reactive entry in test [3] was “not reactive”.

For “1807 T-cell receptor (Blastomyces-specific TCR transgenic 1807 CD4+ T cells)”, the activation (CD44) and proliferation (CFSE) of adoptively transferred 1807 cells in vivo in test [4] turned out to be 85%.

Take “LVLKNEAAHHAIS (listed as Pneumocystis carinii) [Pneumocystis carinii_Rat Form 1]”: the 1807 reactive entry in test [3] (listed as SEQ ID NO: 6) was “not reactive”.

B1: rCalnexin: recombinant Paracoccidioides brasiliensis Calnexin with C-terminal 6×His tag expressed in E. coli, 63 kD (protein)
chain: MRLNASLASLILSSIALIGNVHAEDEVKEDATSTSSVIEKPTFTPTTLKAPFLEQFTDGWETRWTPSHAKKEDSKSEEDWAYVGTWAVEEPHVFNGMVGDKGLVVKNPAAHHAISAKFPKKIDNKGKTLVVQYEVKLQNSLNCGGAYMKLLQDNKKLHAEEFSNTSPYVIMFGPDKCGVTNKVHFIFKHKNPKTGEYEEKHMKLPPAVRVSKLSTLYTLIVNPDQSFQIRIDGAAVKNGTLLEDFSPAVNPEKEIDDPEDKKPEDWVDEAHIPDPEATKPEDWDEDAPYEIVDTDATQPEDWLVDEPTSIPDPEAQKPEDWDDEEDGDWIPPTIPNPKCSEVSGCGMWEPPMKKNPEYKGKWTAPMIDNPAYKGPWAPRKIANPNYFEDKTPSNFEPMGAIGFEIWTMQNDILFDNIYIGHSVEDAEKLKAETWDLKHPVEVAEEEAARPKDEEKKEGTLSFKEAPVKYIRGKIELFISLALENPVEAVKAVPEVAGGLGALLVTLVLIIVGAVGLGSPSPAPAAKKQAEKGKEKTAEAVSTAADNVKGEAKKRSGKAGE
On to B1, for which the “transferred 1807 cells activated and proliferating” value in test [5] is reported as > 85%. For the same molecule, the survival result in test [1] (in vivo) is “prolonged survival”. For the same molecule, the “tetramer-positive cells displaying CCR6 or CXCR3” value in test [2] (draining lymph nodes after vaccination) is reported as 15-20%. Also, in test [2] (mouse, in vivo), the “proportion of CD44+ CD4+ T cells recruited to lung that are tetramer positive” value was “more than doubles”, the “tetramer positive lung cells that produced IL-17” value was “about 50” and the “tetramer-positive cells recruited to the lung that were IL-17 producers” value is given as ~30%. Further, in test [6] (setting [7]), the “immune subjects that responded” value is on record as “five of six” and the “non-immune subjects that responded” value is given as “One of four”. Moreover, in test [6] (immune subjects), the “concentration dependence of CD4+ T cell response” value was “dose-dependent; also recorded: concentration-dependent manner”, the “frequency of activated (CD154) cells compared with Hsp60” value is given as “similar” and the “response in the presence of polymyxin B (LPS contribution)” value is “not due to contaminating LPS; also recorded: retained in the presence of polymyxin B”.
